Measured values from patent publication US6512102B1, “Compositions and methods of diagnosis and treatment using casein kinase I” (Chiron Corporation, priority 1998, dated 2003).
Like-named read-outs stand apart in the source and are kept apart here.

Experiments:
Arm (β-catenin) = Arm (β-catenin) protein level in stable Drosophila Schneider cells, Western blot; assay type: cell-based
Excerpt: Drosophila Schneider cell lines were derived that stably express CKIε in the presence or absence of Drosophila Sgg (GSK3) protein. CKIε and sgg (GSK3) gene expression were controlled by a metallothionein promoter which is induced by copper. […] In the cells expressing CKIε and Sgg (GSK3), Arm (β-catenin) protein level is reduced.
CKIε was PCR-cloned into a vector pRmHa-3 containing a copper-inducible promoter (metallothionine). It was co-transfected with pMKK3 containing the neo-gene (G418-resistant gene) into Drosophila Schneider cells. G418 was used for selection of a stable cell line. In addition, stable cell lines containing combinations of CKIε+wt sgg, CKIε+Actsgg, CKIKD, CKIKD+DN Sgg were made. Actsgg is a mutant containing a mutation of Ser9 to Ala. To detect stabilized Arm, cells were plated 16 hours before the copper induction and lysed three hours after the copper induction. Western blots were performed with anti-Arm mAb 7A12.

Wnt pathway = Wnt pathway activation by CKI isoforms (ectopic axis in Xenopus embryos and Lef-1 reporter gene assay); assay type: cell-based
Description: There are seven mammalian CKI isoforms (α, β, γ1−3, δ and ε). All these isoforms contain a conserved serine-threonine kinase domain and various amino terminal and carboxyl terminal domains. CKIε and CKIδ the most closely related isoforms have a longer carboxy terminus compared to the other isoforms. […] The activation of the Wnt pathway was analyzed by induction of ectopic axis in Xenopus embryos and the Lef-1 reporter gene assay.
Lef-1 reporter assays were carried out as done as described in Sakanaka et al. (1998) Proc Natl Acad Sci USA. 95:3020-3. For example, 293 cells were seeded at 2×10^5 cells/well in 12-well culture plates. Cells were transfected with 0.2 μg of the luciferase reporter gene, 0.02 μg of Lef-1, 0.03 μg of pTK-β-gal as an internal control, the indicated amount of CKIε, Axin or Wnt-1 cDNA, and pcDNA3.1 vector to a total amount of 0.4 μg of plasmids. Transfection was performed by Lipofectamine (Lifetechnologies Inc. #18324012). Luciferase and β-gal activities were measured 48 h after transfection. Relative light units (RLU) were measured with a luminometer (Analytical Luminescence Laboratory, Monolight 2010).

Axin = target: T1, Axin (Homo sapiens, UniProt O15169); assay: Co-immunoprecipitation with Axin in 293 cells; assay type: binding; details: both molecules co-expressed in 293 cells
T1 construct: expressed in transfected cells; host or cells: 293 cells
T1 sequence (O15169 whole entry, species assumed): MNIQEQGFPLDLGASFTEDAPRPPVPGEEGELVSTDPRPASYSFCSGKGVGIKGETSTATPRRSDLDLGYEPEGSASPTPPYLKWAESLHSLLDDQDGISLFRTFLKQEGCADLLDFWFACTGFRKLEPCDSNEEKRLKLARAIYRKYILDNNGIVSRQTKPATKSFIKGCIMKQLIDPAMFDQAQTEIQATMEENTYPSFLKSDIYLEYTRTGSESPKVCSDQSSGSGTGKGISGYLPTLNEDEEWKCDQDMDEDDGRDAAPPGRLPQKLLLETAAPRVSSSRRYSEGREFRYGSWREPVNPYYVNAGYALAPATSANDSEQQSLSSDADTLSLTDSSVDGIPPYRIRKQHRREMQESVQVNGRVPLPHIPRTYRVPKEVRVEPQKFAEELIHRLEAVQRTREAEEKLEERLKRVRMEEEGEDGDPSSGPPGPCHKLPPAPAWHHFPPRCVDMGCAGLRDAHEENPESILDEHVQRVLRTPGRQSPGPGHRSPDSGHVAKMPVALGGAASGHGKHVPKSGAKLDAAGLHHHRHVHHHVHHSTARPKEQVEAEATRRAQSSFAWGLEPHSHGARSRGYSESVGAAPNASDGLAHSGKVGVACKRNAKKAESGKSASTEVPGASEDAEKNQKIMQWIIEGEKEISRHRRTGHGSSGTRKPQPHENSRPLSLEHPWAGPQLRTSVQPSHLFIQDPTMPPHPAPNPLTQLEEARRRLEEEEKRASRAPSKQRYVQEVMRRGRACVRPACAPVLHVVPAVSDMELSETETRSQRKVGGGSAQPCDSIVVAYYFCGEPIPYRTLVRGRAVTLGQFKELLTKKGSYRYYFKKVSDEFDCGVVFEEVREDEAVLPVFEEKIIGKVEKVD
Description: Interaction of CKI with Axin When Axin was expressed in 293 cells, endogenous CKIε was found in the Axin immune-complex.
Cells were washed with PBS and lysed in buffer (20 mM Tris.HCl, pH 7.5/1 mM EDTA/0. 1% Triton X-100/[…]/1 mM phenylmethylsulfonyl fluoride/10 μg/ml each of aprotinin and leupeptin). For immunoprecipitation, cell lysates were incubated with various antibodies for 4 hours at 4° C., then added Dynabeads M-450 Sheep anti-Mouse IgG (Dynal Inc. #110.01). Enhance chemiluminescence reagents (Amersham Pharmacia Biotech) were used for detection of the immunoblots.

GSK3 = assay: In vitro kinase assay on GSK3; assay type: biochemical
Excerpt: B) Luciferase activity transduced by Dvl-1 was inhibited by CKI lys→arg 38. […] It was immunoprecipitated using anti-HA antibody and mixed with Immunoprecipitated GSK3.

[1] = tested on: Lef-1 dependent transcription; assay: Lef-1 enhancer luciferase reporter assay in Cos cells; assay type: cell-based
Description: Combinations of Wnt-1, CKIε, CKI kinase dead variant (lys→arg 38) and Lef-1 were transfected into Cos cells with a luciferase gene driven by multiple copies of Lef enhancer elements. As an internal control of transfection efficiency, the β-galactosidase gene driven by the SV40 promoter was co-transfected in all samples. 24 hours after transfection, cells were lysed and the lysate was tested for luciferase activity. The luciferase activity was normalized with respect to β-galactosidase activity. […] Dorsoanterior index (DAI) grade numbers were assigned to the phenotypes of the embryos. A grade 5 embryo is normal; a grade 3 embryo is cyclopic (one eye); a grade 1 embryo has a tail fin and somites but no head (acephalic); and a grade 0 embryo has no dorsoanterior structures (Kao et al., 1988).
The effect of CKI on Lef-1 dependent transcription in Cos mammalian cells was examined. A luciferase reporter gene driven by multiple copies of the Lef-I enhancer sequence was used. When only Wnt-I or lef-I or CKIε was transfected with the reporter construct, luciferase activity was induced only 2 to 3 fold (FIG. 1A). When Lef-1 was cotransfected with either Wnt-1 or CKIε, luciferase activity was induced 30 or 12 fold respectively.
Luciferase reporter plasmid contains multiple Lef-I enhancer sites upstream of the fos basal promoter. Various DNA plasmids encoding Wnt-1, CKIε , Dvl-1, GSK3 etc. were co-transfected with a luciferase reporter plasmid and a SV40 β-galactosidase plasmid into 24-well Cos cell culture. For each well, 0.5 μg total DNA was in a ratio of 0.08 μg:016 μg:0.02 μg for signaling molecules:luciferase: β-gal. SV40 β-gal construct was used as an internal transfection control, since β-gal activity is independent of the Wnt-1 signaling molecules. Transfection was done using LT1 (5 μl/μg DNA) (Panvera Co. # MIR23 10). Each sample was transfected in triplex repeats to obtain a statistical value. After 24 hours, cells were washed once with PBS and lysed in 50 μl/well lysis buffer supplied with the luciferase assay kit (Promega cat# EI500). 10 μl of each sample was aliquoted into two sets of tubes, one set for the luciferase assay and another for β-gal chemiluminescent reporter assay (Galacto-Light, TROPIX Inc. #BL100G). The result of the luciferase assay was divided by the corresponding β-gal activity, and then averaged.

B1: Sgg: Drosophila Sgg (GSK3) protein, copper-inducible expression (protein, UniProt P18431 1-514, looked up)
Protein kinase shaggy: MSGRPRTSSFAEGNKQSPSLVLGGVKTCSRDGSKITTVVATPGQGTDRVQEVSYTDTKVIGNGSFGVVFQAKLCDTGELVAIKKVLQDRRFKNRELQIMRKLEHCNIVKLLYFFYSSGEKRDEVFLNLVLEYIPETVYKVARQYAKTKQTIPINFIRLYMYQLFRSLAYIHSLGICHRDIKPQNLLLDPETAVLKLCDFGSAKQLLHGEPNVSYICSRYYRAPELIFGAINYTTKIDVWSAGCVLAELLLGQPIFPGDSGVDQLVEVIKVLGTPTREQIREMNPNYTEFKFPQIKSHPWQKVFRIRTPTEAINLVSLLLEYTPSARITPLKACAHPFFDELRMEGNHTLPNGRDMPPLFNFTEHELSIQPSLVPQLLPKHLQNASGPGGNRPSAGGAASIAASGSTSVSSTGSGASVEGSAQPQSQGTAAAAGSGSGGATAGTGGASAGGPGSGNNSSSGGASGAPSAVAAGGANAAVAGGAGGGGGAGAATAAATATGAIGATNAGGANVTDS
- Arm (β-catenin) protein level (Arm (β-catenin); cells expressing CKIε and Sgg (GSK3)): reduced

B2: CKIδ: casein kinase I δ isoform (protein, UniProt P48730 1-415, looked up)
Casein kinase I isoform delta: MELRVGNRYRLGRKIGSGSFGDIYLGTDIAAGEEVAIKLECVKTKHPQLHIESKIYKMMQGGVGIPTIRWCGAEGDYNVMVMELLGPSLEDLFNFCSRKFSLKTVLLLADQMISRIEYIHSKNFIHRDVKPDNFLMGLGKKGNLVYIIDFGLAKKYRDARTHQHIPYRENKNLTGTARYASINTHLGIEQSRRDDLESLGYVLMYFNLGSLPWQGLKAATKRQKYERISEKKMSTPIEVLCKGYPSEFATYLNFCRSLRFDDKPDYSYLRQLFRNLFHRQGFSYDYVFDWNMLKFGASRAADDAERERRDREERLRHSRNPATRGLPSTASGRLRGTQEVAPPTPLTPTSHTANTSPRPVSGMERERKVSMRLHRGAPVNISSSDLTGRQDTSRMSTSQIPGRVASSGLQSVVHR
- activation of the Wnt pathway (Wnt pathway): activate the Wnt pathway

B3: CKIα: casein kinase I α isoform (protein, UniProt P48729 2-337, looked up)
Casein kinase I isoform alpha: ASSSGSKAEFIVGGKYKLVRKIGSGSFGDIYLAINITNGEEVAVKLESQKARHPQLLYESKLYKILQGGVGIPHIRWYGQEKDYNVLVMDLLGPSLEDLFNFCSRRFTMKTVLMLADQMISRIEYVHTKNFIHRDIKPDNFLMGIGRHCNKLFLIDFGLAKKYRDNRTRQHIPYREDKNLTGTARYASINAHLGIEQSRRDDMESLGYVLMYFNRTSLPWQGLKAATKKQKYEKISEKKMSTPVEVLCKGFPAEFAMYLNYCRGLRFEEAPDYMYLRQLFRILFRTLNHQYDYTFDWTMLKQKAAQQAASSSGQGQQAQTPTGKQTDKTKSNMKGF
- activation of the Wnt pathway (Wnt pathway): not the case

B4: CKIεΔ: truncated CKIε mutant where the C-terminus was deleted (protein)
chain: MELRVGNKYRLGRKIGSGSFGDIYLGANIASGEEVAIKLECVKTKHPQLHIESKFYKMMQGGVGIPSIKWCGAEGDYNVMVMELLGPSLEDLFNFCSRKFSLKTVLLLADQMISRIEYIHSKNFIHRDVKPDNFLMGLGKKGNLVYIIDFGLAKKYRDARTHQHIPYRENKNLTGTARYASINTHLGIEQSRRDDLESLGYVLMYFNLGSLPWQGLKAATKRQKYERISEKKMSTPIEVLCKGYPSEFSTYLNFCRSLRFDDKPDYSYLRQLFRNLFHRQGFSYDYVFDWNMLKFGAARNPED
modifications: left off: small tags and cut ends
notes: truncated CKIε mutant where the C-terminus was deleted
- activation of the Wnt pathway (Wnt pathway): fails to activate the Wnt pathway
- Axin binding (Axin): bound less Axin
- kinase activity of C-terminally truncated mutant (GSK3): intact kinase activity
- kinase activity of C-terminally truncated mutant (GSK3; listed as C-terminally truncated CKIε): has kinase activity

B5: CKIε: mouse casein kinase I ε, SEQ ID NO:1, 416 amino acids, 98.9% identical to human CKIε; expressed from transfected cDNA (protein)
chain: MELRVGNKYRLGRKIGSGSFGDIYLGANIASGEEVAIKLECVKTKHPQLHIESKFYKMMQGGVGIPSIKWCGAEGDYNVMVMELLGPSLEDLFNFCSRKFSLKTVLLLADQMISRIEYIHSKNFIHRDVKPDNFLMGLGKKGNLVYIIDFGLAKKYRDARTHQHIPYRENKNLTGTARYASINTHLGIEQSRRDDLESLGYVLMYFNLGSLPWQGLKAATKRQKYERISEKKMSTPIEVLCKGYPSEFSTYLNFCRSLRFDDKPDYSYLRQLFRNLFHRQGFSYDYVFDWNMLKFGAARNPEDVDRERREHEREERMGQLRGSATRALPPGPPTGATANRLRSAAEPVASTPASRIQQTGNTSPRAISRADRERKVSMRLHRGAPANVSSSDLTGRQEVSRLAASQTSVPFDHLGK
modifications: HA tag; Mus Casein Kinase I epsilon
notes: expressed from transfected cDNA
- induction of transcription ([1]; Wnt-I and CKI without lef-I): did not induce the transcription
- luciferase activity induced ([1]; cotransfected with Lef-1, Cos cells): 12 fold
- Arm (β-catenin) protein level (Arm (β-catenin); cells expressing CKIε, copper induction): significantly higher than background
- activation of the Wnt pathway (Wnt pathway): activate the Wnt pathway
- phosphorylation of GSK3 (GSK3; in vitro): phosphorylated purified GSK3 protein as well as immunoprecipitated GSK3 protein
